Substrate: O=C(O)CCC(=O)C(=O)O
Test: purified protein
Format: biochemical, Halorubrum sp. CSM-61
Settings: α-KG varied 1-20 mM, amino donor (R)-methylbenzylamine co-varied at 5 equivalents, 0.5 mM PLP, phosphate pH 8.0, 1 M KCl, 30% DMF, 45 °C per general assay, the varied substrate is named only in Method

B1: BC61-TAm (Halorubrum sp. CSM-61) (protein)
chain: MGFDEMDVDTIWKNGEFLDWEDATTHVLTHALHYGSGVFEGVRCYDTEQGPAVFRWDEHLDRLFDSAKMYDLDIEHSREEITEATMELLRRQDLESCYIRPIAYYGYDSLGVSPKECPTDLVVAAWPWGAYLGEEALEDGVDVMVSSWRKHASSQVPTNVKTTGLYVNSMLAGEEARRNGYVEAIVLNKEGNVAEGPGENVFMVNDGEIYTTGPAQSILEGITRDTVIELAEERGYTVHDEAVVSRGQLYTADELFFTGSAAEVTPIRSVDDTEIGAGTRGPVTEELQSAFFDLVERRTDAHDDWFTYV
notes: full-length gene (930 bp), N-terminal 6xHis tag (pTA1228), expressed in Haloferax volcanii H1424, IMAC purified, 34-35 kDa
With B1 the Km was 3.37 mM and the kcat was 0.042 s⁻¹.
